We go through 2 substances from publication PMC11892807.

The target of assay [1] is CA(A14C/E45C/W184A/M185A) (HIV-1). Description: mass photometry; no ligand added; 2 uL of sample into 18 uL buffer, 60 s at 331 Hz; unliganded WT CA and pre-formed cross-linked pentamers and hexamers as controls.
For assay [2] the target is unchanged. The assay is described as follows: cross-linking; disulfide cross-linking of monomeric CA with DMSO, by sequential dialysis out of beta-mercaptoethanol at 4 C (final 20 mM Tris-HCl pH 8, 40 mM NaCl, no reducing agent); products on SDS-PAGE; legend: 1 uM CA, methods: diluted to 1 uM, then concentrated to 125 uM.
Assay [3] has the same target. The assay is described as follows: cross-linking; as the DMSO reaction, but 2 uM LEN pre-incubated with monomeric CA (1 uM) before concentration to 125 uM and sequential dialysis out of beta-mercaptoethanol; products on SDS-PAGE.
The target of assay [4] is CA(N21C/A22C/W184A/M185A) (HIV-1). The assay is described as follows: mass photometry; no ligand added; 2 uL of sample into 18 uL buffer, 60 s at 331 Hz; unliganded WT CA and pre-formed cross-linked pentamers and hexamers as controls.
The target is the same in assay [5]. The assay is described as follows: cross-linking; disulfide cross-linking of monomeric CA with DMSO, by sequential dialysis out of beta-mercaptoethanol at 4 C (final 20 mM Tris-HCl pH 8, 40 mM NaCl, no reducing agent); products on SDS-PAGE; legend: 1 uM CA, methods: diluted to 1 uM, then concentrated to 125 uM.

Take “CA(A14C/E45C/W184A/M185A) (natural protein)”: the stoichiometry N in assay [1], in assay [2] and in assay [3] was 6 throughout.

“CA(N21C/A22C/W184A/M185A) (natural protein)”: the stoichiometry N in assay [4] and in assay [5] was 5 in each case.
